Our source for the stoichiometry N values is paper doi:10.1101/2022.08.02.502557.

This assay deals with Trimeric LHCII complexes (the major antenna complex of photosystem II) (spinach). Briefly: native gel or EMSA.

With “Trimeric LHCII complexes (the major antenna complex of photosystem II)”, the stoichiometry N came out at 3.
